Measurements reported in paper PMC10491584, “Structural convergence endows nuclear transport receptor Kap114p with a transcriptional repressor function toward TATA-binding protein” (Nature Communications, 2023).

T1: Kap114p wild type (S. cerevisiae, UniProt P53067 1-1004)
T1 construct: Kap114p (karyopherin-β), S. cerevisiae, full length, amplified from total genomic DNA; GST tag followed by a PreScission site (modified pGEX6p1); PreScission protease added during dialysis; also called Kap114p WT; GST-Kap114p (plasmid pGEX-6P-1-Kap114); source: E. coli Rosetta, purified (GST resin, MonoQ, Superdex 200)
T1 sequence (looked up): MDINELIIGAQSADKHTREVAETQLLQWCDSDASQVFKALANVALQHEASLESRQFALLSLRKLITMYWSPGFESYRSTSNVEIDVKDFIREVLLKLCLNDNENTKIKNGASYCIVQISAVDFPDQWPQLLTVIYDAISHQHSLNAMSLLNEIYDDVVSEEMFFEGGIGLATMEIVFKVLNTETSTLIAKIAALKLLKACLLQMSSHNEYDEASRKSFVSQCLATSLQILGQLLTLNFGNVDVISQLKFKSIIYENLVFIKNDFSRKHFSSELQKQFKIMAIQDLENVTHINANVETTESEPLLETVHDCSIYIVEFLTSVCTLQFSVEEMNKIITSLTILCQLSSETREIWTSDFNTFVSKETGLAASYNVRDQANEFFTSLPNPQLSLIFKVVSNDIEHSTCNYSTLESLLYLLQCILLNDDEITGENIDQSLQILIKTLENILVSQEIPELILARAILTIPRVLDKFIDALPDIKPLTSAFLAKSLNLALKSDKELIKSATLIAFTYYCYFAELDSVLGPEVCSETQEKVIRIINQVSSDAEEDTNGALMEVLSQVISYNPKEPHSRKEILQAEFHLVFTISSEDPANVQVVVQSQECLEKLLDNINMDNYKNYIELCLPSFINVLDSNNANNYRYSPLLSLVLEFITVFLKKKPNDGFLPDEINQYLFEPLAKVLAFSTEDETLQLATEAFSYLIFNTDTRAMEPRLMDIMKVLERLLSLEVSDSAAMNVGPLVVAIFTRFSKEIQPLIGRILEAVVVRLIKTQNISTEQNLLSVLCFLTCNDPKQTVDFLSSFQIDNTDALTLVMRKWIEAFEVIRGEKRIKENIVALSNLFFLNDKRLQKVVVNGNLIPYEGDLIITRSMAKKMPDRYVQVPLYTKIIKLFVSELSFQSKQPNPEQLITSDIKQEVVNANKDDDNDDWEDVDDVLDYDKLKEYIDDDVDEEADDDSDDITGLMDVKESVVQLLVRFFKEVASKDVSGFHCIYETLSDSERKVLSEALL

T2: Kap95p (S. cerevisiae, UniProt Q06142 1-861)
T2 construct: Kap95p, S. cerevisiae, full length; The purification paragraph is headed for Kap114p proteins; that Kap95p was treated alike is surmised; source: E. coli, GST-tagged construct in modified pGEX6p1; purification told for the GST-tagged proteins; not shown: GST, N-terminal, cleaved
T2 sequence (looked up): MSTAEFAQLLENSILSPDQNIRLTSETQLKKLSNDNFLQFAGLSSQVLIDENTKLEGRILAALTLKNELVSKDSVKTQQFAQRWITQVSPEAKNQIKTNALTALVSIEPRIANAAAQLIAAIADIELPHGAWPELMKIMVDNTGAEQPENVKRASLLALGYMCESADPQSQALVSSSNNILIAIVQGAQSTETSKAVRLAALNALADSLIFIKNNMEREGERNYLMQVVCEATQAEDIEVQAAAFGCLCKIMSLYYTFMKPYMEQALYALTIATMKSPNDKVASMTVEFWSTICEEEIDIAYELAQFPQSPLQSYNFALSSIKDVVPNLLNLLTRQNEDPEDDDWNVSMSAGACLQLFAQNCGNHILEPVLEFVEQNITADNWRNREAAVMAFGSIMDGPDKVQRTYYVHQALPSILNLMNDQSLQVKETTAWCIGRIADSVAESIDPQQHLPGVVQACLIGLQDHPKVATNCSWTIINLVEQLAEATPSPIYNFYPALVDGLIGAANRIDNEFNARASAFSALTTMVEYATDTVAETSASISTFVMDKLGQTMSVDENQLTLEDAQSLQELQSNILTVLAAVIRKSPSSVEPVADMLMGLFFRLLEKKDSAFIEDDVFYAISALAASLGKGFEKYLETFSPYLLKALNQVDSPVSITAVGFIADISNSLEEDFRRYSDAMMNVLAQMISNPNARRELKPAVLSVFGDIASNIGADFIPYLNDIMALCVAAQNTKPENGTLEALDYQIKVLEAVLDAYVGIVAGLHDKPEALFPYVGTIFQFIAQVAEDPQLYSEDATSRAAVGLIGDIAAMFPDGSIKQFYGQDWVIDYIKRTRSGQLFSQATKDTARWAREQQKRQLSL

T3: Kap114p (wild type) (S. cerevisiae, UniProt P53067 1-1004)
T3 construct: Kap114p, S. cerevisiae, full length, amplified from total genomic DNA; GST tag removed with PreScission protease; also called karyopherin-β Kap114p; source: E. coli Rosetta, purified (GST resin, MonoQ, Superdex 200); not shown: GST, N-terminal, cleaved
T3 sequence (looked up): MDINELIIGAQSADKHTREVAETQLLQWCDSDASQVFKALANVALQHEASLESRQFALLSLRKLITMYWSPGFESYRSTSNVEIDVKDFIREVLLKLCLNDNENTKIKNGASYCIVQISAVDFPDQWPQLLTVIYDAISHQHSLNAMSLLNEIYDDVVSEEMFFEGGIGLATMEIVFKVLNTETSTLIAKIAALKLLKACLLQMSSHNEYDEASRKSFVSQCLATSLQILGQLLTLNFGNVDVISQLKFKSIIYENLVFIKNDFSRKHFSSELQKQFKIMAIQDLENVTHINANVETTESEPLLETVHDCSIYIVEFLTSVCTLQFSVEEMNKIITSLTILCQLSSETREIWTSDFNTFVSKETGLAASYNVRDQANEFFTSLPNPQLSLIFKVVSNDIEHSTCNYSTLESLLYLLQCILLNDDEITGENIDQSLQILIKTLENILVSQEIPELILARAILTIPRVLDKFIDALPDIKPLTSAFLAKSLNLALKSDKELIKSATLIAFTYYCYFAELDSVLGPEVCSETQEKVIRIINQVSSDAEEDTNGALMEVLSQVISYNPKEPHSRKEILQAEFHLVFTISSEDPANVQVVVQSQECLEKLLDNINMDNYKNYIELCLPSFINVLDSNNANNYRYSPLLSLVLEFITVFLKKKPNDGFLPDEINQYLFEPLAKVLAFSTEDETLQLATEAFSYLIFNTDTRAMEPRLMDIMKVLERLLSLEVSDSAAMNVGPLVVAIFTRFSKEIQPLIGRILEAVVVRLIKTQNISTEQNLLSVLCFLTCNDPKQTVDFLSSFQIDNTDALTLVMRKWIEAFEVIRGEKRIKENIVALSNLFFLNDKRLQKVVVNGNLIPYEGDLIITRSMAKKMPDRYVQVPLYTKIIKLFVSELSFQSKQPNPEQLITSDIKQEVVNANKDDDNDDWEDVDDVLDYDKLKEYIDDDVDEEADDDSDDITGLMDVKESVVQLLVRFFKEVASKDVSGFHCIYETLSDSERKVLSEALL

B1: yTBP^C (K145A) (domain or fragment, S. cerevisiae, UniProt P13393 61-240, looked up)
chain: SGIVPTLQNIVATVTLGCRLDLKTVALHARNAEYNPKRFAAVIMRIREPKTTALIFASGKMVVTGAKSEDDSKLASRKYARIIQAIGFAAKFTDFKIQNIVGSCDVKFPIRLEGLAFSHGTFSSYEPELFPGLIYRMVKPKIVLLIFVSGKIVLTGAKQREEIYQAFEAIYPVLSEFRKM
notes: also called yTBP(K145A); pET28a-Spt15 (61-240) (K145A); source: E. coli Rosetta, purified (Ni-NTA, HiTrap SP, Superdex 75); not shown: His6, N-terminal, cleaved
B2: yTBP^C (R141A) (domain or fragment, S. cerevisiae, UniProt P13393 61-240, looked up)
chain: SGIVPTLQNIVATVTLGCRLDLKTVALHARNAEYNPKRFAAVIMRIREPKTTALIFASGKMVVTGAKSEDDSKLASRKYAAIIQKIGFAAKFTDFKIQNIVGSCDVKFPIRLEGLAFSHGTFSSYEPELFPGLIYRMVKPKIVLLIFVSGKIVLTGAKQREEIYQAFEAIYPVLSEFRKM
notes: 61-240, point mutant R141A; also called yTBP(R141A); source: E. coli Rosetta, purified (Ni-NTA, HiTrap SP, Superdex 75); not shown: His6, N-terminal, cleaved

Columns and labels:
Conditions in all cases: both partners purified
[1] = target: T1, Kap114p wild type; experiment: ITC; MicroCal iTC200, 25 °C, 20 mM HEPES pH 7.4, 150 mM NaCl; high concentration: 50 µM wild type or mutant Kap114p in the sample cell, 500 µM wild type or mutant yTBPC in the syringe; triplicate
[2] = target: T2, Kap95p; experiment: ITC; Kap95p with wild type or R141A yTBP^C; which protein was in the cell is not told for Kap95p; n = 3
[3] = target: T3, Kap114p (wild type); experiment: ITC; MicroCal iTC200, 25 °C, 20 mM HEPES pH 7.4, 150 mM NaCl; 25 or 50 μM wild type or mutant Kap114p in the cell, 250 or 500 μM wild-type or mutant yTBP^C in the syringe; triplicate

Binder	Kd [1] [nM]	Kd [2] [µM]	fold reduction of the binding affinity against wild type yTBP^C [3] [fold]
B1	238	–	–
B2	–	~9.7	> 200
